The target in assay [1] is LRP6 on HEK293/HEK293T reporter cells (UniProt O75581 20-1613, limits assumed). The assay can be described thus: cell-based or functional assay.
In assay [2] the target is T1, FZD1 CRD, Fc-tagged (human, UniProt Q9UP38 70-250).
T1 construct: domain: CRD; Bought; not shown: Fc tag of the purchased fusion
As to the kind of experiment: kinetic table (called BLI in paragraph 170).

For assay [3], the target named is T2, FZD2 CRD, Fc-tagged (human, UniProt Q14332 24-190).
T2 construct: domain: CRD; Bought; not shown: Fc tag of the purchased fusion
The assay can be described thus: kinetic table (called BLI in paragraph 170).

Assay [4] deals with T3, FZD6 ECD, Fc-tagged (human, UniProt O60353 19-132).
T3 construct: range 19-132; Made in Expi293 cells; single protomer species purified by size exclusion; not shown: human IgG1 Fc of the pFUSE-hIgG1-Fc2 vector (Invivogen)
T3 sequence (looked up): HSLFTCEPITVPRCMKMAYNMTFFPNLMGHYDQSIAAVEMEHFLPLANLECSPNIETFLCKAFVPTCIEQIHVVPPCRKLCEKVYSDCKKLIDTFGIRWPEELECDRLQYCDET
The assay can be described thus: kinetic table (called BLI in paragraph 35).

In assay [5] the target is T4, FZD9 CRD, Fc-tagged (human, UniProt O00144 23-187).
T4 construct: domain: CRD; Bought; not shown: Fc tag of the purchased fusion
T4 sequence (looked up): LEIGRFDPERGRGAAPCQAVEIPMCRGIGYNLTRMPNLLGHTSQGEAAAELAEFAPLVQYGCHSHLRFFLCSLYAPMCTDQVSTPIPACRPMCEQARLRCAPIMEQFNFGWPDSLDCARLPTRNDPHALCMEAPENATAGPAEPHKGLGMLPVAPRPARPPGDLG
The assay can be described thus: kinetic table (called BLI in paragraph 35).

Assay [6] concerns the target T5, FZD10 CRD, Fc-tagged (human, UniProt Q9ULW2 21-161).
T5 construct: domain: CRD; Bought; not shown: Fc tag of the purchased fusion
T5 sequence (looked up): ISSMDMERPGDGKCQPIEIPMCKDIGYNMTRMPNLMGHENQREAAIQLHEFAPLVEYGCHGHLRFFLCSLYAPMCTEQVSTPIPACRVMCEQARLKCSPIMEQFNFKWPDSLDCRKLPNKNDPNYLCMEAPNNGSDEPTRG
The assay can be described thus: kinetic table (called BLI in paragraph 35).

Experimental findings from patent publication US20210032352A1 (ANTERA THERAPEUTICS, published 2021) are described below.

T1 sequence (Q9UP38 70-250): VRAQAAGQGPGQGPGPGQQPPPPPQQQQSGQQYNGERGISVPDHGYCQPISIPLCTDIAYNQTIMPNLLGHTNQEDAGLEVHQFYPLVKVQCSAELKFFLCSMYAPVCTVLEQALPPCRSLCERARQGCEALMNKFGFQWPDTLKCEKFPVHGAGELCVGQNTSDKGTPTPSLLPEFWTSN

B1: F^P+P-L6^1+3 (5019-K/H-2539-2542) (bispecific antibody)
chain 1: EVQLVESGGGLVQPGGSLRLSCAASGFNIGSSSIHWVRQAPGKGLEWVASIYSAFASTSYADSVKGRFTISADTSKNTAYLQMNSLRAEDTAVYYCARYHFPFGFALDYWGQGTLVTVSSGGGGSDIQMTQSPSSLSASVGDRVTITCRASQSVSSAVAWYQQKPGKAPKLLIYSASSLYSGVPSRFSGSRSGTDFTLTISSLQPEDFATYYCQQGVYLFTFGQGTKVEIKLEDKTHTKVEPKTSDKTHTCPPCPAPELLGGPSVFLFPPKPKDTLMISRTPEVTCVVVDVSHEDPEVKFNWYVDGVEVHNAKTKPREEQYNSTYRVVSVLTVLHQDWLNGKEYKCKVSNKALPAPIEKTISKAKGQPREPMVFDLPPSREEMTKNQVSLWCMVKGFYPSDIAVEWESNGQPENNYKTTPPVLDSDGSFFLYSKLTVDKSRWQQGNVFSCSVMHEALHNHYTQKSLSLSPGKSGSETPGTSESATPESGGGEVQLVESGGGLVQPGGSLRLSCAASGFNISYSSIHWVRQAPGKGLEWVAYISSYYGYTYYADSVKGRFTISADTSKNTAYLQMNSLRAEDTAVYYCARAHYFPWAGAMDYWGQGTLVTVSSGGGGSDIQMTQSPSSLSASVGDRVTITCRASQSVSSAVAWYQQKPGKAPKLLIYSASSLYSGVPSRFSGSRSGTDFTLTISSLQPEDFATYYCQQYYWPITFGQGTKVEIK
chain 2: EVQLVESGGGLVQPGGSLRLSCAASGFNIGSSSIHWVRQAPGKGLEWVASIYSAFASTSYADSVKGRFTISADTSKNTAYLQMNSLRAEDTAVYYCARYHFPFGFALDYWGQGTLVTVSSGGGGSDIQMTQSPSSLSASVGDRVTITCRASQSVSSAVAWYQQKPGKAPKLLIYSASSLYSGVPSRFSGSRSGTDFTLTISSLQPEDFATYYCQQGVYLFTFGQGTKVEIKLEDKTHTKVEPKSSDKTHNCPPCPAPELLGGPSVFLFPPKPKDTLMISRTPEVTCVVVDVSHEDPEVKFNWYVDGVEVHNAKTKPREEQYNSTYRVVSVLTVLHQDWLNGKEYKCKVSNKALPAPIEKTISKAKGQPREPQVYTLPPIRELMTSNQVSLSCAVKGFYPSDIAVEWESNGQPENNYKTTPPVLDSDGSFFLVSKLTVDKSRWQQGNVFSCSVMHEALHNHYTQKSLSLSPGKSGSETPGTSESATPESGGGEVQLVESGGGLVQPGGSLRLSCAASGFNISSYYIHWVRQAPGKGLEWVASIYSSYGYTSYADSVKGRFTISADTSKNTAYLQMNSLRAEDTAVYYCARTVRGSKKPYFSGWAMDYWGQGTLVTVSSGGGGSDIQMTQSPSSLSASVGDRVTITCRASQSVSSAVAWYQQKPGKAPKLLIYSASSLYSGVPSRFSGSRSGTDFTLTISSLQPEDFATYYCQQYSWGPFTFGQGTKVEIK
The term Kd denotes the constant that tells how readily two partners part at equilibrium. Low values mean tighter binding, high ones weaker binding. B1: the “EC50 of activation of a LEF/TCF reporter gene in HEK293T cells” value in assay [1] is ~5 nM. Also, the “ß-catenin luciferase reporter assay in HEK293 cells, activation over background” value in assay [1] is ~400 fold over background. For the same molecule, the Kd was < 0.01 nM in assay [2] and 0.04 nM in assay [3]. The binding result in assay [4], in assay [5] and in assay [6] was “no binding” throughout.
